This passage reports Kd, dH and stoichiometry N results from publication PMC5941314.

In one test the target is Ube2T (Homo sapiens) (UniProt Q9NPD8). To be noted: cited from earlier work.
For test [1], the target named is ZNRF1^CTD (C-terminal domain of ZNRF1, residues 139–227) (UniProt Q8ND25). Put plainly: ITC; ZNRF1 construct (10–30 µM) in the cell, E2 in the syringe; 25°C; 20 mM sodium phosphate pH 8.0, 150 mM NaCl; single site model. (In general: In ITC the heat of successive injections is recorded.)
Sequence of ZNRF1^CTD (C-terminal domain of ZNRF1, residues 139–227) (Q8ND25 139-227): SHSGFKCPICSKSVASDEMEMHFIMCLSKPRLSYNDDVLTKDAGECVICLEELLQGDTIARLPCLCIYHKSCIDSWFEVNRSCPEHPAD

Sequence of Ube2W (Q96B02 whole entry): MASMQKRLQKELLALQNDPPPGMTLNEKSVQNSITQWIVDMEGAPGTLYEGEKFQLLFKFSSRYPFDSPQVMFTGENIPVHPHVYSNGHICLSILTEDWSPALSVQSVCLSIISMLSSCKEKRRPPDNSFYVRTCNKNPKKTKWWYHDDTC
Sequence of Ube2D2 (P62837 whole entry): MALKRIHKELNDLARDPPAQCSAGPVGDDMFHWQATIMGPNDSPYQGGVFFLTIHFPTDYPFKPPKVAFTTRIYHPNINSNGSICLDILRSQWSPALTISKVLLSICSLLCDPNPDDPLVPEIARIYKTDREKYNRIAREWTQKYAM
Sequence of FANCL (Q9NW38 2-375): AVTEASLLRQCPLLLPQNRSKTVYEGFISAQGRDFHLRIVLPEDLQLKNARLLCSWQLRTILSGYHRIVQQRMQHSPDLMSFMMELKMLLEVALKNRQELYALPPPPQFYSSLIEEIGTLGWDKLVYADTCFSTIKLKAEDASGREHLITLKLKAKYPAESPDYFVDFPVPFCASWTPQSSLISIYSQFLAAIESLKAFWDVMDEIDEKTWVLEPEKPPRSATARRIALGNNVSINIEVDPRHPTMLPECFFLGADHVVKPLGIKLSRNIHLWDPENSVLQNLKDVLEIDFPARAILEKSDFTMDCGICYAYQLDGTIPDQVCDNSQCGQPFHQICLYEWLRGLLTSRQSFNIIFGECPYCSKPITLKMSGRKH
Sequence of Ube2T (Homo sapiens) (Q9NPD8 whole entry, the tested form may be a part): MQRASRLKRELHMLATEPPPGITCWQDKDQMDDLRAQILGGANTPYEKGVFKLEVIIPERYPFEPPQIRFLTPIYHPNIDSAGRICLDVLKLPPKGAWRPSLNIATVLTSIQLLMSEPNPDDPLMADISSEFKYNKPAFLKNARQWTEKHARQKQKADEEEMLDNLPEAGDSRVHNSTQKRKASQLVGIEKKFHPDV

With FANCL (from UniProt Q9NW38), the Kd (as a rule, the free concentration of one partner at which half of the binding sites on the other are occupied at equilibrium, for simple one-to-one binding) with Ube2T (Homo sapiens) is 500 nM.

Turning to “Ube2D2 (from UniProt P62837 1-147) (enzyme)”, in test [1], the dH is -7.79 kcal/mol and the stoichiometry N (usually a count of units in the complex or per binding partner) amounted to 0.963.

As for “Ube2W (from UniProt Q96B02 1-151) (enzyme)”, in test [1], the dH was -8.85 kcal/mol and the stoichiometry N stood at 0.906.
